Here are results for 13 molecules from patent US20180362616A1 (NATIONAL INSTITUTE FOR BIOTECHNOLOGY IN THE NEGEV, published 2018).

Positions count from the first letter of the chain named. Names may count otherwise.

In assay [1] the target is T1, human Kallikrein-6 (human, UniProt Q92876 22-244). Description: inhibition of kallikrein-6 cleavage of BOC-Phe-Ser-Arg-AMC; slow tight-binding fit.
Assay [2] deals with T2, human mesotrypsin (catalytically active) (human, UniProt P35030 81-304).
T2 construct: mature; In the invasion assays it is the endogenous enzyme of PC3-M cells; also called active mesotrypsin; PRSS3 gene product
T2 sequence (looked up): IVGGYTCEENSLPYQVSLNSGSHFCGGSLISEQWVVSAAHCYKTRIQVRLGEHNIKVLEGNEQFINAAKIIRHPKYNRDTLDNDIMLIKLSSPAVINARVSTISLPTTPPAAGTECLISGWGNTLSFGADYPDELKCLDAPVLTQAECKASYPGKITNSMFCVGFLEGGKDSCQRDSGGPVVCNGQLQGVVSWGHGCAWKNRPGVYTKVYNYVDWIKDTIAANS
The assay can be described thus: inhibition of mesotrypsin cleavage of Z-GPR-pNA; competitive inhibition fit (Equation 1).

In assay [3] the target is T1, human Kallikrein-6. Description: SPR, APPI held on nickel chip by its His tag, hK6 as analyte, 25° C.
The target of assay [4] is T3, human anionic trypsin (human, UniProt P07478 24-247).
T3 construct: mature
Description: inhibition of anionic trypsin cleavage of Z-GPR-pNA; slow tight-binding fit.

The target of assay [5] is T4, human cationic trypsin (human, UniProt P07477 24-247).
T4 construct: mature
Description: inhibition of cationic trypsin cleavage of Z-GPR-pNA; slow tight-binding fit.

The target in assay [6] is T5, Factor XIa (human, UniProt P03951 19-625).
T5 construct: also called FXIa
Description: inhibition of FXIa cleavage of S-2366.

The target in assay [7] is T1, human Kallikrein-6. Description: inhibition of hK6 catalytic activity, slow tight inhibition mechanism.
For assay [8], the target named is T2, human mesotrypsin (catalytically active). Description: inhibition of mesotrypsin cleavage of Z-GPR-pNA.
The target is the same in assay [9]. Description: Ki against that of APPI-WT, mesotrypsin inhibition (Equation 1).
Assay [10] shares this target. Description: Ki against that of APPI-WT, mesotrypsin inhibition (Equation 2).
Assay [11] shares this target. The assay can be described thus: inhibition of mesotrypsin cleavage of Z-GPR-pNA; slow tight-binding fit (Equation 2).
Assay [12] shares this target. Description: free energy change of association calculated from Ki of mesotrypsin inhibition (Equation 4), triple mutant cycle.
For assay [13] the target is unchanged. The assay can be described thus: cell-based or functional assay.
Assay [14] has the same target. The assay can be described thus: Ki against that of APPI-WT, mesotrypsin inhibition.
For assay [15] the target is unchanged. The assay can be described thus: cell-based or functional assay. The source holds these as a separate data set.
The target is the same in assay [16]. Description: inhibition constant of soluble variant; target taken as mesotrypsin.
For assay [17], the target named is T1, human Kallikrein-6. The assay can be described thus: SPR, APPI held on nickel chip by its His tag, hK6 as analyte. In general terms: In SPR one partner is held on a chip, and binding of the other changes the refractive index at the surface.
In assay [18] the target is T2, human mesotrypsin (catalytically active). Description: inhibition of mesotrypsin activity.
Assay [19] has the same target. Description: Ki of soluble variant against APPI-WT.
Assay [20] deals with T1, human Kallikrein-6. The assay can be described thus: by the numbers: Ki (fold) for mesotrypsin over Ki (fold) for kallikrein-6.
Assay [21] deals with T2, human mesotrypsin (catalytically active). The assay can be described thus: Ki of APPI-WT over Ki of APPI-M17G/I18F/F34V, mesotrypsin.
The target in assay [22] is T1, human Kallikrein-6. Description: Ki of APPI-WT over Ki of APPI-M17G/I18F/F34V, kallikrein-6.
Assay [23] has as its target T2, human mesotrypsin (catalytically active). Description: inhibition of mesotrypsin cleavage of Z-GPR-pNA; slow tight-binding fit.
Assay [24] has as its target T3, human anionic trypsin. The assay can be described thus: Ki of APPI-WT over Ki of APPI-M17G/I18F/F34V, anionic trypsin.
Assay [25] addresses T4, human cationic trypsin. Description: Ki of APPI-WT over Ki of APPI-M17G/I18F/F34V, cationic trypsin.
Assay [26] deals with T5, Factor XIa. The assay can be described thus: Ki of APPI-WT over Ki of APPI-M17G/I18F/F34V, FXIa.
Assay [27] has as its target T3, human anionic trypsin. Description: by the numbers: Ki (fold) for mesotrypsin over Ki (fold) for anionic trypsin.
Assay [28] addresses T2, human mesotrypsin (catalytically active). Description: by the numbers: Ki (fold) for mesotrypsin over Ki (fold) for this protease.
Assay [29] deals with T4, human cationic trypsin. The assay can be described thus: by the numbers: Ki (fold) for mesotrypsin over Ki (fold) for cationic trypsin.
Assay [30] deals with T5, Factor XIa. The assay can be described thus: by the numbers: Ki (fold) for mesotrypsin over Ki (fold) for FXIa.

A word on the Ki: it is the equilibrium dissociation constant of an inhibitor or competing ligand from its target. One may read the Kd as the equilibrium constant for the complex coming apart.

B1: APPI-WT (SEQ ID NO: 25), soluble, expressed in Pichia pastoris (other)
chain: EVCSEQAETGPCRAMISRWYFDVTEGKCAPFFYGGCGGNRNNFDTEEYCMAVCGSAI
notes: Secreted from P. pastoris GS115, purified by nickel IMAC and gel filtration; also called WT APPI; not shown: N-terminal FLAG tag with the SnaBI/EcoRI-coded residues, and the C-terminal AvrII-coded residues plus His6
As for B1, the Ki in assay [1] was found to be 2.23 nM; in assay [2] it was 131 nM; in assay [4] it was 0.00174 nM; in [5], 0.00627 nM; in [6], 0.41 nM; in assay [7], 2.24 nM. Moreover, the Ki in assay [8] came out at 131 nM. Moreover, the Kd in [3] is 7.91 nM.

B2: APPI-M17G (SEQ ID NO: 18), soluble (designed binder)
chain: B1 chain with M15G
notes: not shown: AvrII site residues and C-terminal HIS6 tag
In the case of B2, the “Ki (fold)” value in assay [9] was 39.8 fold; in [10], 34.8 fold. Besides, the values for the Ki in [11] and in [2] were 3.69 nM and 3.29 nM, respectively. The “ΔΔGa, edge WT to M17G” value in [12] was -2.26 kcal/mol. In assay [13], the “Kcat (s^-1) of hydrolysis of APPI by mesotrypsin (HPLC time course)” value (“Kcat (s^-1) of hydrolysis of APPI” below) was determined as 0.0156 s⁻¹.

B3: APPI-I18F (SEQ ID NO: 19), soluble (designed binder)
chain: B1 chain with I16F
notes: as for B2
For B3, the Ki in [2] came to 3.29 nM. The “ΔΔGa, edge WT to I18F” value in assay [12] was -2.26 kcal/mol. For the same molecule, the “Kcat (s^-1) of hydrolysis of APPI” value in [13] is 0.0104 s⁻¹. The “Ki (fold)” value in [14] stood at 39.8 fold.

B4: APPI-F34V (SEQ ID NO: 23), soluble (designed binder)
chain: B1 chain with F32V
notes: Variants were subcloned between EcoRI and AvrII of the APPI-WT pPIC9K template; not shown: AvrII site residues and C-terminal HIS6 tag
In turn, B4 gave a Ki in [2] of 50.1 nM. Besides, in assay [12], the “ΔΔGa, edge WT to F34V” value is -0.59 kcal/mol. Also, the “Kcat (s^-1) of hydrolysis of APPI” value in assay [13] is 0.0161 s⁻¹. The “Ki (fold)” value in assay [14] came to 2.6 fold.

B5: APPIT11C/M17G/I18F/F34C (SEQ ID NO: 11), soluble (designed binder)
chain: B1 chain with T9C, M15G, I16F, F32C
notes: as for B2
In the case of B5, the “Kcat (1/s), proteolytic resistance” value in assay [15] turned out to be 0.00521 s⁻¹. In assay [16], this molecule returned a Ki of 149 nM.

B6: APPI-M17G/I18F (SEQ ID NO: 22), soluble (designed binder)
chain: B1 chain with M15G, I16F
notes: as for B2
In assay [11], B6 displayed a Ki of 0.453 nM. Further, in assay [12], the “ΔΔGa, edge I18F to M17G/I18F” value was -1.22 kcal/mol and the “ΔΔGa, edge M17G to M17G/I18F” value is -1.22 kcal/mol. The “Kcat (s^-1) of hydrolysis of APPI” value in [13] was 0.00291 s⁻¹. Further, in assay [14], the “Ki (fold)” value turned out to be 290 fold.

B7: APPI-M17G/F34V (SEQ ID NO: 21), soluble (designed binder)
chain: B1 chain with M15G, F32V
notes: as for B2
In the case of B7, the Ki in assay [11] stood at 1.4 nM. In assay [12], the “ΔΔGa, edge F34V to M17G/F34V” value is -2.2 kcal/mol and the “ΔΔGa, edge M17G to M17G/F34V” value was -0.53 kcal/mol. Further, in assay [13], the “Kcat (s^-1) of hydrolysis of APPI” value came to 0.00371 s⁻¹. In addition, in [14], the “Ki (fold)” value turned out to be 93.6 fold.

B8: APPI-I18F/F34V (SEQ ID NO: 20), soluble (designed binder)
chain: B1 chain with I16F, F32V
notes: as for B2
B8 gave a Ki in assay [11] of 3.3 nM. In [12], the “ΔΔGa, edge F34V to I18F/F34V” value is -1.67 kcal/mol and the “ΔΔGa, edge I18F to I18F/F34V” value was 0 kcal/mol. The “Kcat (s^-1) of hydrolysis of APPI” value in assay [13] was 0.00535 s⁻¹. Besides, the “Ki (fold)” value in [14] is 39.8 fold.

B9: APPIM17L,I18F,S19F,F34V (SEQ ID NO: 13), soluble (designed binder)
chain: B1 chain with M15L, I16F, S17F, F32V
notes: also called APPI 3M G17L,S19F; not shown: His tag at the C-terminal
Take B9: in assay [17], the “fold improvement in binding compared to APPI WT” value worked out at 22.5 fold. Further, the Kd in assay [3] amounted to 0.351 nM. In [18], this molecule had a Ki of 5.38 nM.

B10: APPIM17G/I18F/K29L/F34V (SEQ ID NO: 10), soluble (designed binder)
chain: B1 chain with M15G, I16F, K27L, F32V
notes: as for B2
B10: the “Kcat (1/s), proteolytic resistance” value in assay [15] is 0.000535 s⁻¹. Further, in assay [19], the “fold improvement in affinity relative to APPI-WT” value is approximately 1000 fold. The molecule also showed a Ki in [16] of 0.0891 nM.

B11: APPIT11V/M17G/I18F/F34V (SEQ ID NO: 9), soluble (designed binder)
chain: B1 chain with T9V, M15G, I16F, F32V
notes: as for B2
For B11, the “Kcat (1/s), proteolytic resistance” value in assay [15] turned out to be 0.000347 s⁻¹. Moreover, in assay [19], the “fold improvement in affinity relative to APPI-WT” value was approximately 2000 fold. Further, the affinity in [16], expressed as Ki, was 0.0499 nM.

B12: APPIM17C/I18F/F34C (SEQ ID NO: 12), soluble (designed binder)
chain: B1 chain with M15C, I16F, F32C
notes: as for B2
As to B12, in assay [15], the “Kcat (1/s), proteolytic resistance” value is 0.00038 s⁻¹. Besides, the “fold improvement in affinity relative to APPI-WT” value in [19] is approximately 2000 fold. For the same molecule, the Ki in assay [16] came out at 0.0524 nM.

B13: APPI-M17G/I18F/F34V (SEQ ID NO: 8), soluble (designed binder)
chain: B1 chain with M15G, I16F, F32V
notes: also called APPI 3M; APPI^3M; not shown: AvrII site residues and C-terminal HIS6 tag
For B13, the “specificity ratio (formula not given)” value in [20] was found to be 715; in [27] it was 1240; in assay [28], 1; in assay [29], 1120; in [30], 350000. Moreover, the “Ki (fold)” value in assay [21] was determined as 1460 fold; in [22] it was 2.04 fold; in assay [24], 1.18 fold; in assay [25], 1.3 fold; in assay [26] it was 0.00416 fold; in [14] it was 1460 fold. The Ki in [23] turned out to be 0.0898 nM; in assay [11] it was 0.0898 nM; in assay [1], 1.09 nM; in assay [4] it was 0.00147 nM; in [5], 0.00496 nM; in assay [6] it was 98.4 nM. In assay [7], the Ki was 1.1 nM. Besides, in assay [13], the “Kcat (s^-1) of hydrolysis of APPI” value was 0.000429 s⁻¹.
